# Assay results from paper PMC11610669, “A Spectroscopic Study on the Amyloid‐β Interaction with Clicked Peptide‐Porphyrin Conjugates: a Vision Toward the Detection of Aβ Peptides in Aqueous Solution” (Chembiochem, 2024).
# Entries after “also recorded” stand apart in the source; their conditions may differ.
# Tests used:
# [1] = UV-Vis self-aggregation of the conjugates; assay type: physicochemical; settings: UV-Vis 300–650 nm, 5 μM, 10 mM phosphate buffer pH 7.4, room temperature, 0–120 h
# Experimental: We first studied the effects of peptide conjugation on the porphyrin chromophore, by UV‐Vis spectra in the region between 300–650 nm. The spectra were recorded using a solution of 5 μM Porphyrin‐peptide conjugate in 10 mM phosphate buffer pH 7.4. The UV‐Vis profile of the porphyrin precursor MCPTPyP, recorded at the same concentration, is also shown for the sake of comparison (Figure 1).
# (§1) Peptide conjugation influences the spectral features of the porphyrin chromophore as evidenced by the red shift in the absorption maximum in the region of the Soret band region. The Q bands are also affected, particularly in the Cu‐Ph‐Pep and Zn‐Ph‐Pep compounds (Figure 1). In this case the presence of a metal ion within the porphyrin's core might contribute to the observed spectral profile of these compounds. […] The fluorescence spectra of the investigated systems were also acquired in view of the interaction of the studied conjugates with cells (see below biological section).[41] The fluorescence spectra were recorded with the photoexcitation at 425±5 nm, in 10 mM phosphate buffer pH 7.4 and 5 μM concentration. The emission spectrum of the porphyrin precursor MCPTPyP ( Ph ) was also obtained for the sake of comparison.
# Spectra were recorded on a Jasco V‐670 Spectrophotometer at room temperature. All measurements were performed in the 300–650 nm wavelength region, in a 10 mM phosphate buffer solution at pH 7.4 using a 1 cm path length quartz cell. The spectra of all the peptide‐porphyrin conjugates, either in the absence or in the presence of equimolar Aβ42, were acquired at 5 μM. In some cases, the same sample solution was used to run the CD spectra. The final concentrations of Aβ42 and peptide conjugates were 5 μM (1 : 1 molar ratio).
# [2] = Porphyrin fluorescence in buffer; assay type: physicochemical; settings: 5 μM, 10 mM phosphate buffer pH 7.4, excitation 425 nm; vs pristine MCPTPyP
# Source text: as §1
# Spectra were recorded on a Horiba Fluoro‐max‐4 spectrofluorometer from 440–800 nm in 1 nm steps, at an excitation wavelength λexc=425 nm, at room temperature. The final fluorescence spectra represent averages of at least three measurements. Bandwidths of 5 nm for both excitation and emission were used. The sample of the compound used to record absorption spectra were the same as those for the CD spectra.
# Aβ42 [3] = target: T1, Aβ42 (Homo sapiens, UniProt P05067); experiment: Grating-Coupled Interferometry (GCI) binding to immobilized Aβ42; settings: GCI fit quality parameter
# Experimental: The Grating‐Coupled Interferometry (GCI) is a widely used analytical technique for characterizing intermolecular interactions. It allows quantitative measurements of both the affinity and the kinetics of the binding events. This high sensitivity label‐free method was exploited to measure the interactions of Aβ42 with Cu‐Ph‐Pep , Ph‐Pep , and Zn‐Ph‐Pep (Figure 5S). Control experiments with pristine MCPTPyP and the peptide GPGKLVFF ( Pep ) were carried out for comparison. The calculated association and dissociation kinetic constants (kon and koff, respectively) and the thermodynamic binding constant (KD), are summarized in Table 1. The obtained values indicate that all the conjugates show good affinities with Aβ42. It is also clear from Table 1 that the peptide moiety is fundamental for the molecular recognition of the Aβ42 peptide.[48] […] Nevertheless, it is important to emphasize that the interaction with Aβ42 is primarily mediated by the peptide rather than by the porphyrin macrocycle. We next investigated whether these peptide derivatives could be employed as molecular probes for the detection of Aβ42 aggregated species. A new set of CD experiments was then carried out with Aβ42 at 20 μM both in the absence and in the presence of the porphyrin‐peptide conjugates at 1 : 1 molar ratio in the UV (195–350) and Visible (350–500) regions. […] The signal rapidly evolved toward the typical β‐sheet profile (already within 24 h) with a single minimum at 216 nm, an x‐axis intercept at 202 nm and a maximum shift at a wavelength 195 nm.[49] […] For the sake of comparison, the CD spectra of the porphyrin‐peptide conjugates at 20 μM were also recorded in the same experimental conditions, both in the far‐UV and Visible regions (Figure 6S).
# The experiments were performed on a Creoptix WAVE system (Creoptix). Borate buffer (100 mM sodium borate pH 9.0, 1 M NaCl) was used for chip conditioning. Aβ42 peptide (20 μg/ml in Na Acetate pH 4.5) was immobilized on 4PCH WAVE chips (quasiplanar polycarboxylate surface; Creoptix) according to the manufacturer instructions at a final density of 1910±40 pg/mm^2. Single‐cycle sequential injections of dilution series for each Porphyrin‐Peptide conjugates in running buffer (PBS, 0.005 % Tween 20, 1 % DMSO, 0.2 mg/ml BSA) were performed at 25 °C, using a flow rate of 100 μl/min. In details, for the conjugate Cu‐Ph‐Pep , 1 : 2 dilution series starting from 200 μM were injected for 10 s association time, 45 s dissociation time, followed by a dissociation time of 600 s for the last higher concentration injection. Finally, for the conjugates Ph‐Pep and Zn‐Ph‐Pep , 1 : 2 dilution series starting from 50 μM and 100 uM, respectively, were injected for 30 s association time, 45 s dissociation time, followed by a dissociation time of 600 s for the last higher concentration injection. Blank injections were used for double referencing and a DMSO calibration curve for bulk correction. Analysis and correction of the obtained data were performed using the Creoptix WAVE control software (correction applied: X and Y offset; DMSO calibration; double referencing). Mass transport binding models with bulk correction were used to fit all experiments. All the experiments have been performed at least in triplicate.
# Figure 5S. Quantitative binding kinetics of Aβ42 vs a) MCPTPyP; b) Cu-Ph-Pep; c) Ph-Pep; d) Zn-Ph-Pep; and e) Pep measured by GCI. All curves were blank subtracted. Experiments were performed in triplicate. All the quality assessments (i.e., χ2 shown in Table 1 of the main text , parameter errors, and residual plots were acceptable; the sensorgrams had sufficient curvatures an d the kinetic constant k off were within the measurable range) were fulfilled. Descriptive Statistical Analysis was employed to calculate the mean of the obtained values of k on, koff and KD as a measure of central tendency and standard deviations of the former values were computed as a measure of dispersion.
# Figure 6S. […]
# Aβ42 [4] = target: T1, Aβ42; experiment: Sensing: induced CD in porphyrin Soret region with Aβ42; assay type: binding; settings: Aβ42 20 μM, 1:1, 350–500 nm, 10 mM phosphate buffer pH 7.4
# Experimental: The Grating‐Coupled Interferometry (GCI) is a widely used analytical technique for characterizing intermolecular interactions. It allows quantitative measurements of both the affinity and the kinetics of the binding events. This high sensitivity label‐free method was exploited to measure the interactions of Aβ42 with Cu‐Ph‐Pep , Ph‐Pep , and Zn‐Ph‐Pep (Figure 5S). Control experiments with pristine MCPTPyP and the peptide GPGKLVFF ( Pep ) were carried out for comparison. The calculated association and dissociation kinetic constants (kon and koff, respectively) and the thermodynamic binding constant (KD), are summarized in Table 1. The obtained values indicate that all the conjugates show good affinities with Aβ42. It is also clear from Table 1 that the peptide moiety is fundamental for the molecular recognition of the Aβ42 peptide.[48] […] For the sake of comparison, the CD spectra of the porphyrin‐peptide conjugates at 20 μM were also recorded in the same experimental conditions, both in the far‐UV and Visible regions (Figure 6S).
# Spectra were recorded on a J‐810 spectrometer (Jasco, Japan) under a constant flow of N2 at room temperature. […] All aggregation kinetics were monitored up to 120 hours. The CD spectra were recorded for Aβ42 (5 μM and 20 μM) monomer in the absence or in the presence of porphyrin‐peptide conjugates (5 μM and 20 μM for the 1 : 1 molar ratios). […]
# T1 sequence (P05067 672-713 limits assumed): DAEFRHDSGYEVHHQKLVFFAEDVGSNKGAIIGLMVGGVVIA
smiles,measurement,setting,value
COC(=O)[C@H](Cc1cn(CCCC[C@H](NC(=O)CNC(C)=O)C(=O)N2CCC[C@H]2C(=O)NCC(=O)N[C@@H](CCCCN)C(=O)N[C@@H](CC(C)C)C(=O)N[C@H](C(=O)N[C@@H](Cc2ccccc2)C(=O)N[C@@H](Cc2ccccc2)C(N)=O)C(C)C)nn1)NC(=O)c1ccc(-c2c3nc(c(-c4cc[n+](C)cc4)c4ccc([nH]4)c(-c4cc[n+](C)cc4)c4nc(c(-c5cc[n+](C)cc5)c5ccc2[nH]5)C=C4)C=C3)cc1 [Zn‐Ph‐Pep],self-aggregation,[1],slight propensity to self‐aggregation
same,fluorescence emission intensity,[2],somewhat decreased
same,"χ^2 (average of the squared residuals, fitting confidence)",Aβ42 [3],0.49±0.09
same,induced CD signal in Soret region with Aβ42,Aβ42 [4],induced dichroic signal; also recorded: generates a distinct CD signal
